Ends that are not written are not given here. * marks the point of attachment. Biotin = O=C1N[C@H]2[C@H](CS[C@H]2CCCCC(=O)*)N1
What was measured:
[1] = target: wild-type EGFR protein on the surfaces of A431 tumor cells and normal human primary hepatocytes (human) (UniProt P00533); assay: FACS, normal human primary hepatocytes
[2] = target: wild-type EGFR protein on the surfaces of A431 tumor cells and normal human primary hepatocytes (human) (UniProt P00533); assay: FACS, A431 tumor cells
[3] = target: human EGFRvIII protein, full length, on transfected cells (human) (UniProt P00533); assay: FACS, U87MG-hEGFRvIII 2C6 cells
[4] = target: human EGFRvIII protein, full length, on transfected cells (human) (UniProt P00533); assay: FACS, 293F-hEGFRvIII 1F3 cells
[5] = target: human EGFRvIII protein, full length, on transfected cells (human) (UniProt P00533); assay: FACS, U87MG-hEGFRvIII 2G2 cells
[6] = target: human EGFRvIII protein, full length, on transfected cells (human) (UniProt P00533); assay: FACS, CHO-K1-hEGFRvIII 2D11 cells
[7] = target: human EGFRvIII protein, full length, on transfected cells (human) (UniProt P00533); assay: FACS, CHO-K1-hEGFRvIII 1D9 cells
[8] = target: human EGFRvIII protein, full length, on transfected cells (human) (UniProt P00533); assay: FACS, U87MG-hEGFRvIII 2C3 cells
[9] = target: human EGFRvIII protein, full length, on transfected cells (human) (UniProt P00533); assay: FACS, CHO-K1-hEGFRvIII 1E3 cells
[10] = target: human EGFRvIII protein, full length, on transfected cells (human) (UniProt P00533); assay: FACS, CHO-K1-hEGFRvIII 2B3 cells
[11] = target: human EGFRvIII protein, full length, on transfected cells (human) (UniProt P00533); assay: FACS, U87MG-hEGFRvIII 1D1 cells
[12] = target: human EGFRvIII protein, full length, on transfected cells (human) (UniProt P00533); assay: FACS, 293F-hEGFRvIII 1D11 cells
[13] = target: human EGFRvIII protein, full length, on transfected cells (human) (UniProt P00533); assay: FACS, CHO-K1-hEGFRvIII 1G10 cells
[14] = target: human EGFRvIII protein, full length, on transfected cells (human) (UniProt P00533); assay: FACS, U87MG-hEGFRvIII 1B3 cells
[15] = target: human EGFRvIII protein, full length, on transfected cells (human) (UniProt P00533); assay: FACS, 293F-hEGFRvIII 1C10 cells
[16] = target: human EGFRvIII protein, full length, on transfected cells (human) (UniProt P00533); assay: FACS, CHO-K1-hEGFRvIII 1E10 cells
[17] = target: human EGFRvIII protein, full length, on transfected cells (human) (UniProt P00533); assay: FACS, U87MG-hEGFRvIII 1F9 cells
[18] = target: T1, human EGFRvIII-hFc protein (human, UniProt P00533 25-645); assay: ELISA, coated EGFRvIII-hFc, antibody 0.001 nM
T1 construct: extracellular domain; made in HEK293 cells, purified on protein A; also called immunogen A; hFc-tagged EGFRvIII protein; not shown: human IgG Fc fragment (hFc) of the pCpC vector
How it was run: (§1)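 Plates coated overnight at 4° C with EGFRvIII-hFc at 1.0 μg/mL, blocked with 1% BSA, then incubated with purified anti-EGFRvIII antibody 2 h at 37° C. Bound antibody detected with HRP secondary (2 h, 37° C) and TMB for 30 min, HCl-stopped, read at A450.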

[19] = target: T1, human EGFRvIII-hFc protein; assay: ELISA, plate coated with human EGFRvIII-hFc, HRP secondary antibody, absorbance at 450 nm
Method: The purified immunogen A (EGFRvIII-hFc) obtained in example 1 (for the preparation method, see step (I) in example 1) is diluted with PBS to a final concentration of 1.0 μg/mL, and then added to a 96-well ELISA plate at 100 μl/well. The plate is sealed with a plastic film and incubated at 4° C. overnight. The next day, the plate is washed twice with a plate washing solution [PBS+0.01% (v/v) Tween20], and added with a blocking solution [PBS+0.01% (v/v) Tween20+1% (w/w) BSA] for blocking 2 hours at room temperature. The blocking solution is discarded, and the purified EGFRvIII antibody obtained in example 2 is added at 100 μl/well. The plate is incubated for 2 hours at 37° C., and then washed 3 times with the plate washing solution [PBS+0.01% (v/v) Tween20]. The plate is added with an HRP (horseradish peroxidase) labeled secondary antibody (purchased from Sigma), incubated at 37° C. for 2 hours, and then washed 3 times with the plate washing solution [PBS+0.01% (v/v) Tween20]. The plate is added with 100 μl of TMB substrate/well, incubated for 30 minutes at room temperature, and then added with 100 μl of stopping solution (1.0N HCl)/well. A450 nm value is read using an ELISA plate reader (SpectraMax 384plus, purchased from Molecular Device), and the results are shown in FIG. 6 and table 10.

[20] = target: T1, human EGFRvIII-hFc protein; assay: ELISA, coated EGFRvIII-hFc, antibody 0.0001 nM
How it was run: as §1

[21] = target: T1, human EGFRvIII-hFc protein; assay: ELISA, coated EGFRvIII-hFc, antibody 0.1 nM
How it was run: as §1

[22] = target: T1, human EGFRvIII-hFc protein; assay: ELISA, coated EGFRvIII-hFc, antibody 0.01 nM
How it was run: as §1

[23] = target: T1, human EGFRvIII-hFc protein; assay: ELISA, coated EGFRvIII-hFc, antibody 100 nM
How it was run: as §1

[24] = target: T1, human EGFRvIII-hFc protein; assay: ELISA, coated EGFRvIII-hFc, antibody 1 nM
How it was run: as §1

[25] = target: T1, human EGFRvIII-hFc protein; assay: ELISA, coated EGFRvIII-hFc, antibody 10 nM
How it was run: as §1

[26] = target: T2, human EGFRvIII protein, full length, on transfected cells (human, UniProt P00533 25-1210); assay: FACS on CHOK-EGFRvIII cells
T2 construct: whole, on cells; stably transfected CHO-K1, U87MG and HEK293(F) cells; also called hEGFRvIII; mutant EGFRvIII protein

pep35 = target: T3, pep35 (cysteine pairing not given here); assay: peptide dot matrix ELISA
T3 peptide: CKKCEGPCRKVCNGIGK(Biotin)

pep18 = target: T4, pep18; assay: peptide dot matrix ELISA
T4 peptide: RACGADSYEMEEDGVRK(Biotin)

pep08 = target: T5, pep08 (cysteine pairing not given here); assay: peptide dot matrix ELISA
T5 peptide: YVVTDHGSCVRACGADK(Biotin)

pep28 = target: T6, pep28 (cysteine pairing not given here); assay: peptide dot matrix ELISA
T6 peptide: EEDGVRKCKKCEGPCRK(Biotin)

pep31 = target: T7, pep31 (cysteine pairing not given here); assay: peptide dot matrix ELISA
T7 peptide: GVRKCKKCEGPCRKVCK(Biotin)

pep24 = target: T8, pep24 (cysteine pairing not given here); assay: peptide dot matrix ELISA
T8 peptide: SYEMEEDGVRKCKKCEK(Biotin)

pep33 = target: T9, pep33 (cysteine pairing not given here); assay: peptide dot matrix ELISA
T9 peptide: RKCKKCEGPCRKVCNGK(Biotin)

pep02 = target: T10, pep02; assay: peptide dot matrix ELISA
T10 peptide: EEKKGNYVVTDHGSCVK(Biotin)

pep16 = target: T11, pep16 (cysteine pairing not given here); assay: peptide dot matrix ELISA
T11 peptide: CVRACGADSYEMEEDGK(Biotin)

pep17 = target: T12, pep17; assay: peptide dot matrix ELISA
T12 peptide: VRACGADSYEMEEDGVK(Biotin)

pep34 = target: T13, pep34 (cysteine pairing not given here); assay: peptide dot matrix ELISA
T13 peptide: KCKKCEGPCRKVCNGIK(Biotin)

pep23 = target: T14, pep23 (cysteine pairing not given here); assay: peptide dot matrix ELISA
T14 peptide: DSYEMEEDGVRKCKKCK(Biotin)

pep11 = target: T15, pep11 (cysteine pairing not given here); assay: peptide dot matrix ELISA
T15 peptide: TDHGSCVRACGADSYEK(Biotin)

pep32 = target: T16, pep32 (cysteine pairing not given here); assay: peptide dot matrix ELISA
T16 peptide: VRKCKKCEGPCRKVCNK(Biotin)

Negative control hIgG (antibody)
mean fluorescence intensity (MFI) [1]: 219 MFI
mean fluorescence intensity (MFI) [2]: 388 MFI

known EGFRvIII antibody (purchased from Absoluteantibody, #Ab00184-1.1)
cell mean fluorescence intensity [3]: 178
cell mean fluorescence intensity [4]: 395
cell mean fluorescence intensity [5]: 182
cell mean fluorescence intensity [6]: 77
cell mean fluorescence intensity [7]: 457
cell mean fluorescence intensity [8]: 82.7
cell mean fluorescence intensity [9]: 42
cell mean fluorescence intensity [10]: 109
cell mean fluorescence intensity [11]: 96.4
cell mean fluorescence intensity [12]: 388
cell mean fluorescence intensity [13]: 563
cell mean fluorescence intensity [14]: 66.9
cell mean fluorescence intensity [15]: 458
cell mean fluorescence intensity [16]: 92
cell mean fluorescence intensity [17]: 68

B1: Murine anti-43H6 (antibody, V domains shown)
VH: INAEYAGGPGLVKPSQSLSLTCTVTDYSITSDYAWNWIRQFPGNKLEWMGYISYSGNTNYNPSLKSRISITRDTSKNQFFLQLNSVTTEDTATYYCARLGRGFAYWGQGTLVTVSA
VL: DILMTQSPSSMSVSLGDTVSITCHASQDINSNIGWLQQKPGTSFKGLIYHGRNLEDGVPSRFSGSGSGEDYSLTISSLESEDFADYYCVQYAHFPPTFGAGTKLELK
notes: murine hybridoma antibody; also called 43H6A1
OD450 nm [18]: 0.11
EC50 (read off the curve) [19]: ~0.02 nM
OD450 nm [20]: 0.09
OD450 nm [21]: 1.39
OD450 nm [22]: 0.25
OD450 nm [23]: 3.85
OD450 nm [24]: 3.86
OD450 nm [25]: 3.87

B2: c75G7C6-4 (antibody, human IgG1, V domains shown)
VH: EVQLQQSGPELVKPGASVKIPCKASGYTFTDYNMDWVKQSHGKSLEWIGDINPNNGDTIYNQKFKGKATLTVDKSSSTAYMELRSLTSEDTAVYYCARGDYSGYYPVYYAMDYWGQGTSVTVSS
VL: ENVLTQSPAIMSASPGEKVTMTCRASSSVSSSYLHWYQQKSGASPKLWIFSTSNLAAGVPARFSGSGSGTSYSLTVSSVEAEDAATYYCQQYSGYPLTFGAGTKLELK
notes: chimeric, human IgG1 / kappa; DG of heavy chain CDR3 mutated to SG; also called DG/SG mutant
fold decrease in binding ability compared to the wild-type chimeric antibody c75G7C6 [26]: 2.5 fold

B3: Chimeric antibody 75G7 (antibody, V domains shown)
VH: EVQLQQSGPELVKPGASVKIPCKASGYTFTDYNMDWVKQSHGKSLEWIGDINPNNGDTIYNQKFKGKATLTVDKSSSTAYMELRSLTSEDTAVYYCARGDYDGYYPVYYAMDYWGQGTSVTVSS
VL: ENVLTQSPAIMSASPGEKVTMTCRASSSVSSSYLHWYQQKSGASPKLWIFSTSNLAAGVPARFSGSGSGTSYSLTVSSVEAEDAATYYCQQYSGYPLTFGAGTKLELK
notes: also called c75G7C6
ELISA signal (pep35): 0.07
ELISA signal (pep18): 0.05
ELISA signal (pep08): 0.05
ELISA signal (pep28): 0.06
ELISA signal (pep31): 0.06
ELISA signal (pep24): 0.05
ELISA signal (pep33): 0.07
ELISA signal (pep02): 0.05
ELISA signal (pep16): 0.05
ELISA signal (pep17): 0.05
ELISA signal (pep34): 0.06
ELISA signal (pep23): 0.05
ELISA signal (pep11): 0.08
ELISA signal (pep32): 0.06

From US20210032351A1 (XDCEXPLORER SHANGHAI, published 2021)
